Assay results reported in the supplement of paper PMC12042874.
± gives the uncertainty stated by the source.

Test: amyloid nucleation score (Sup35N fusion, yeast selection) (log enrichment); library NNK2; higher = more nucleation; inactive = no reads after selection
Procedure, shortened: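 Sup35N fusions to peptides of 20 random codons were expressed in psi-negative yeast, induced 24 hours with 100 μM copper sulfate, and grown 7 days at 30°C on medium lacking adenine and uracil. Input and output plasmid inserts were sequenced by Illumina. The nucleation score is the DiMSum log enrichment of output over input reads, centred on the mode score of non-aggregating sequences. Sequences with under 100 input reads were excluded.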

Substance	amyloid nucleation score
RVPTVLFFLIVDFSCPPFSC	inactive
NTGSLRYWHCVSSGNSTTGR	inactive
FGMSCWFLFFASQFSVTNNC	-1.51 ± 0.76
TFSTYSFLFVKTVI	-0.417 ± 0.2
GSGFLFFSVF	0.353 ± 0.25
CGMFWLSRYEFYRISSCRRL	1.3 ± 0.14
NTLRMIPADFPSGRLEQTKV	0.552 ± 0.4
PPVMFLRWCVQAGSPWTNHC	-0.105 ± 1.1
INTCIWASLYLSMAHEYRI	-0.793 ± 0.62
HLFNGSGGLFSLTRSFMKS	-0.228 ± 1.1
FFVMGRSGYSLVALKREKSI	inactive
LCRDCPNRVQLCQLL	-0.684 ± 0.54
LGRCY	2.72 ± 0.062
DGVSHC	0.02 ± 0.79
KLPYVEIPVVLTSLSYLGV	inactive
NGFMDYQLPLAARVKSSWHL	2.97 ± 0.076
HESKYNVQVFN	-0.276 ± 0.76
VTRDARRDSQGDKVV	1.02 ± 0.17
LFVRAFEPSGDHLCYQYVCL	-0.566 ± 0.38
FPLDIKGKWDVGNMEGKVVE	0.486 ± 0.41
STALAFYP	inactive
AFCTVSSCFMSSSLPI	5.3 ± 0.06
VMWASERWYANETNSHLFSL	-0.105 ± 0.26
TVFWSNLVRVPCRSDTSQYD	0.148 ± 1
HVWLIGFNLFLYFITLVVWV	-0.459 ± 1.1

Substance	amyloid nucleation score
FGWGN	0.09 ± 0.51
FVRQDYKRVRDLFPTLNFDK	-0.949 ± 0.64
NISFGSYILLRFLMRVE	0.58 ± 0.6
RDSVIYCCMMMKGTCAWLYL	inactive
KFRNCVRKDFLSMHHFSVVF	-0.666 ± 0.45
EFIEYTSFYWWNLLRLGVHS	-0.61 ± 0.23
FLLPSYERDSSYVAYF	-0.687 ± 0.79
VSEQSMQCGVKFRHGTPSMV	0.607 ± 0.38
VWYINSTNYLCPLISRVQVE	-0.997 ± 0.36
STCFLTFVY	inactive
RALVSRCRVCADKSPASSCD	-0.411 ± 0.45
RDVFVLCWDFFMVERCRDRC	5.85 ± 0.072
SSFYTSGYPQNVSARGLGAE	0.627 ± 0.56
STVKVLVPEVHWSKATPRNY	2.99 ± 0.14
MLVLFADRRSMRDLDNTGFV	0.029 ± 0.79
MRVRLGSATR	0.47 ± 0.34
SWGTRV	inactive
HLFCTMHSQTLEDYIKSLVC	-0.087 ± 1
TRDIELWLGWNRKEVCVLLE	inactive
GYLFGSALKSDIQYHTESMF	inactive
MVLVS	0.548 ± 0.34
SHYPKGCHWGGLHSGDRKFP	0.892 ± 0.45
STWDGWGFSWISFL	-0.635 ± 1
RGALVICCNTLSCGRGRLGD	10.22 ± 0.074
QLRGLVL	0.704 ± 0.44

Substance	amyloid nucleation score
IVCPFKT	-1.35 ± 0.78
QSNRKYGETHWFSTCNMHVL	0.533 ± 0.45
VQRQIDNSKLWYNYTICIPA	0.679 ± 0.62
ALCKFRDFFVMYNTGWHTVQ	-0.935 ± 1.1
NSHFALDGKSW	-0.711 ± 0.39
PHLEGVSCVVVKHQLRS	0.82 ± 0.17
DVVKNLYSSGLGLSTCMLYI	-0.95 ± 0.55
YRLYHILECSGVMMS	-1.01 ± 0.44
GMWFPLWFVDSSNSMSLLCV	-1.59 ± 0.76
KKHIWGCMRYKMLTL	-0.393 ± 1.1
KFSTLCRISYITYLFFG	6.336 ± 0.049
QCGGIGFLILLNVCGDGLWI	4.37 ± 0.092
SFYRHGFTGNGTSVRGPDRS	0.097 ± 0.79
CNSRNMVTGISM	0.034 ± 1.1
VKWLYTLDSNFVLVFVPCLT	-0.078 ± 0.39
SKPCWLFRNK	-1.22 ± 1.1
FYLFQWCK	-0.889 ± 1.1
RDNCVWYTGHSLKRMRIAKA	inactive
ITYNIEISMRDF	4.32 ± 0.11
SCRTQVMVLSLLFKRKVGFN	-1.28 ± 0.36
QQYPWYWIFIFNIYKYPSVS	0.475 ± 0.42
YFDSDRS	-0.502 ± 0.76
MPPRGKSWSVRTSLWKQIFM	3.24 ± 0.11
NSVLVLAWWVNANCGLREGG	5.454 ± 0.041
IGTVAPVDLTAYSRERLFRM	inactive

Substance	amyloid nucleation score
GKCYFA	-1.87 ± 0.62
CFMAVQI	inactive
SGYCQDCSSGPFESDGINIS	-0.321 ± 1
RTISMYEELVTELRNSVM	-0.283 ± 0.33
GMFLWLFLVPRYHPTSTELG	0.219 ± 1
SPRRFLMKQGIHQVTLAHCH	-0.342 ± 0.76
YAESSNDARSSFISKVSAFI	inactive
SGVLSLGGVQSWNSLLRWDN	-0.476 ± 0.44
MLSQASKT	-0.84 ± 1.1
CHQCVNERFESKREPVPDHS	0.421 ± 0.45
GCIGGHRFYSPRSNSVFEVG	3.44 ± 0.081
VVVRNGLLNISFKVNRCGFG	8.662 ± 0.055
YMTVLLMSVFNWSQSRRPP	3.55 ± 0.077
RFDSPG	0.558 ± 0.4
TSGDCYMNGILNNGWGQ	-1.42 ± 0.78
CFAIFWLFECTTSSMKMTRV	0.053 ± 1.1
GTLWRFKESTMGLTGITAGT	0.987 ± 0.4
RNIRWPAHISAGDKGVSGEF	-0.65 ± 1
YITRFLPQVTVWQRVFCCSY	7.454 ± 0.039
DTALFYSNNVMTSKVGAQKS	-0.003 ± 1.1
TVYAIP	-0.322 ± 0.65
ASSTNVYLIIIGLWSAAM	2.46 ± 0.18
VHLVSLSLNKTLYDFLTGMG	-0.178 ± 0.35
TLMIYCFFSGFLKGVWMM	0.053 ± 0.8
GHIFSRHVKGQLHGWEEDGP	0.058 ± 1

Substance	amyloid nucleation score
MALHVQWRVTGSI	5.14 ± 0.037
HTYVRVYLRGELCHPNCMNA	6.348 ± 0.032
SYMDE	4.33 ± 0.06
NYWWYVPW	0.527 ± 0.51
LRYPKRGFPNHVLSIESKLD	-0.479 ± 1
SNHLIVMISVFYFKSVRI	inactive
RLFQE	-0.153 ± 1.1
YEHRNGLWSMKKRLIG	0.253 ± 0.31
VLAFRFYFAVVLGLMIVYG	-0.16 ± 0.62
IFSISNFAITVSNTLTV	1.06 ± 0.32
WLSTKWIFFISNVKFFLYLR	-0.06 ± 1
KKLKRRRVFVCEFTKEGIRG	-0.067 ± 1.1
KICWYQFKANMASQ	4.41 ± 0.086
IKYRFGGLGPRPPNGRRFE	0.635 ± 0.65
GNVGL	1.86 ± 0.078
LRIQCMMTLVWYSTPQSCNT	5.56 ± 0.066
YYMKFEAILKDQWSTVYN	inactive
KSIAGNC	-1.48 ± 0.78
TTSVTGQC	-1.09 ± 0.55
FGLLWNNQSWLVARVSCSNL	-0.04 ± 0.36
NELCRKPLNLGCISSYVFIE	-0.584 ± 0.3
SGTYR	inactive
AYMYTMGYRSHHVTEVVVIW	-0.047 ± 0.49
NNELDRISRTVCLWWVG	-0.239 ± 0.65
GTVGGVGMFVLLVTRSKVFV	1.3 ± 0.29

Substance	amyloid nucleation score
YMVLSHVVQPFNHLGISWPC	inactive
NHSTVYLLMEISTGLVISGN	1.99 ± 0.16
SQFLIMTEDR	0.123 ± 0.34
LANLTSWSILMAKRRLRLTL	1.06 ± 0.33
KNVLLKTLVHWLGRGMSAPG	0.165 ± 1
MMAIFWGFSVQRRRGSGIDL	2.74 ± 0.18
FCRLLPSLCTTNLK	-0.663 ± 0.76
NVFLLSVREMSSFLRTTTLG	1.24 ± 0.17
ISLSIWQPRNSDGWKQEPAP	2.41 ± 0.24
VNASD	2.3 ± 0.25
SSVIHYRT	0.038 ± 0.8
RLKTDRLAMIPVRPKRFPGP	0.191 ± 0.63
PHSLVLSGWHNLDAFFNATL	inactive
ALMTVASRKTLIPVGAKQMN	inactive
MKFVNINGAICSVRHPSVRT	0.089 ± 0.79
RNSAHNLEMFYRGMWDGMCW	-0.429 ± 0.55
RHHYHSYGSTLVKVRAGQRC	4.88 ± 0.077
ICCCFIWP	7.044 ± 0.044
YYKFTVCWMYYLYQKSRTLL	-1.15 ± 0.78
ILYGDVWLRFKRFWLSWMPA	-0.055 ± 0.55
YFEPSSPGVIV	inactive
GSYCCLVKFMKFFSSLGHQF	-1.29 ± 1
WCGREVNLHALLCKIDRLTI	0.598 ± 0.49
RNSVFPILLAYDASDFVARK	-0.494 ± 0.41
YFYIF	2.03 ± 0.12

Substance	amyloid nucleation score
RLSCKED	0.108 ± 0.61
GSVTVCIMSRR	-0.729 ± 0.64
RFEWVPGLSKGN	inactive
YAKNYSILQACQLDHWEFGV	4.04 ± 0.056
AVLFRRVAFRHNWPW	0.995 ± 0.68
LVAVVQGFRCVCLDSKLTGV	inactive
VMPGSLCLVRVFFCIMHVLY	inactive
TFIHN	-0.161 ± 0.19
CTAYYCDVSLNYVVRYNFPL	inactive
IKISYTLMASEAVNTFS	-1.22 ± 1.1
KLVVLCFLSVIVWVNGQR	4.67 ± 0.07
SSGLTRFKYRRLRSIVFELG	inactive
KLANYHLARDSFMVRKHRKG	0.602 ± 0.57
WLIGRNAKSWAWVFLKRSTG	0.392 ± 0.25
FCKYANSGGCNHSMSDAV	-0.761 ± 1.1
ISSLLFVETELHSVFNLWWM	-0.277 ± 0.44
RPLCLLGRVATSKETSGRRC	4.34 ± 0.049
LKWDFRIYTTSWAAKKQGME	0.095 ± 0.37
FYVNSWPSPLGTYWRGYNGR	0.106 ± 1
GALRPAFLSCKMVWR	0.528 ± 0.49
PGYNSFLWWAAME	-0.271 ± 0.34
